Data taken from US6972319B1, “Pituitary adenylate cyclase activating peptide (PACAP)receptor 3 (R3) agonists and their pharmacological methods of use” (priority 1999, dated 2005).
Substitutions are numbered along the chain they refer to. No end group written: not given here.

T1: PACAP-R3 (Homo sapiens, UniProt P41587)
T1 sequence (P41587 24-438): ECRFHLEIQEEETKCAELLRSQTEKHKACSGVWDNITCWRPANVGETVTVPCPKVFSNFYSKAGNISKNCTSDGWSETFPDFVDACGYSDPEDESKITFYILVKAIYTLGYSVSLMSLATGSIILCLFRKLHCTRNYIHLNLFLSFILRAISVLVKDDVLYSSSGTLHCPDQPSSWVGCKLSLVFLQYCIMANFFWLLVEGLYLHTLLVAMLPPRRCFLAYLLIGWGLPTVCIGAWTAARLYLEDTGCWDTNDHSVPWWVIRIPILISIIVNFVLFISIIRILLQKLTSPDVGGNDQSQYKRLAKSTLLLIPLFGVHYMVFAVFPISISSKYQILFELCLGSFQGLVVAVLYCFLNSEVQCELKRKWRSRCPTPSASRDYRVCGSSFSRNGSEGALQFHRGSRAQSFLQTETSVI

T2: PACAP-R2 (Homo sapiens, UniProt P32241)
T2 construct: expressed in transfected cells; host or cells: CHO cells
T2 sequence (P32241 31-457): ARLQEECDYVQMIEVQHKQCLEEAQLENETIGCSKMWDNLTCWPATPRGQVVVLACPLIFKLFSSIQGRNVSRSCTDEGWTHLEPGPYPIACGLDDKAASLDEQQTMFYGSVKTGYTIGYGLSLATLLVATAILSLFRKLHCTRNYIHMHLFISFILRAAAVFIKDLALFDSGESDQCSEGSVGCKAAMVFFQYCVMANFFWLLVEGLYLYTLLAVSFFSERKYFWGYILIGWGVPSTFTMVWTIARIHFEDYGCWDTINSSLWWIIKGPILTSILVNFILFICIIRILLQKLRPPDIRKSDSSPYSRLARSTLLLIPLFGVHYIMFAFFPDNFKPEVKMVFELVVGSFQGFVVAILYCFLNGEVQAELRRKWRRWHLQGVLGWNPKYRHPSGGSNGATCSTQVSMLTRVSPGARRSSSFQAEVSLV

T3: PACAP-R3 (human, UniProt P41587 24-438)
T3 sequence (looked up): T1 sequence (P41587 24-438)

B1: PAC25 (peptide)
peptide: HSDGIFTDSYSRYRKQMAVKKYLAKVL-NH2
B2: PAC26 (peptide)
peptide: HSDGIFTDSYSRYRKQMAVKKYLAAKL-NH2
B3: PAC27 (peptide)
peptide: HSDGIFTDSYSRYRKQMAVKKYLAAVK-NH2
B4: rR3P174 (peptide)
peptide: HSDAVFTDNYTRLRKQMAAKKYLNSIKNRI
B5: rR3P175 (peptide)
peptide: B4 peptide with A19G
B6: rR3P176 (peptide)
peptide: B4 peptide with A19K
B7: rR3P177 (peptide)
peptide: B4 peptide with A19R
B8: rR3P178 (peptide)
peptide: B4 peptide with A19S
B9: rR3P179 (peptide)
peptide: B4 peptide with K27P

Legend:
[1] = Peptide-induced elevation of plasma insulin after IVGTT in rats; assay type: in vivo; conditions: one minute after IVGTT (0.4 g/kg glucose), Wistar rats
Procedure: Wistar rats are fasted overnight (17 hrs) and then anesthetized with pentobarbital (0.1 ml/100 g BW). Glucose (0.4 g/kg dissolved in 1% human albumin-saline)+/−peptide (dissolved in 1% human albumin-saline) is injected intravenously into the tail vein. The rats are eye-bled 1 minute after the injection and 50-100 ul of the plasma are assayed for insulin level with the Linco RIA kit (Linco Research, Inc., St. Charles, Mo.).
In accordance with the protocol of example 2 above, overnight fasted Wistar rats were anesthetized with pentobarital; i.v. injected with glucose±peptide and eye bled after 1 minute. N=12 rats/group. […] The peptide or vehicle was given i.v. followed by a glucose load given i.p. in accordance with example 3. The plasma glucose was followed over the time period indicated.
Plasma insulin: Data are expressed as % of plasma insulin one minute after IVGTT (0.4 g/kg glucose) with either saline, 0.1 nmol/kg P51, P55, P60, P66 or 1 nmole/kg of the other peptides in Wistar rats. Blood was drawn from the eye and insulin was measured with the rat insulin RIA kit (Linco Research, Inc., St. Charles, Mo.).

PACAP-R3 [2] = molecular target: T1, PACAP-R3; experiment: Cyclic AMP SPA on CHO cells expressing PACAP R3; assay type: cell-based; parameters: expressed in transfected cells; host or cells: CHO cells (Geneticin selection); conditions: for EC50: cAMP SPA, CHO cells transfected with PACAP-R3, concentration at which 50% of maximum PACAP27 activity is achieved, NA = no detectable activities, read-out: R3 EC50; for R3 Selectivity: ratio of EC50 at R2 versus EC50 at R3
In short: (§1)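 CHO cells expressing human PACAP-R2 or PACAP-R3 were exposed to peptide for 15 min at 37 °C with 100 μM IBMX and protease inhibitors. cAMP was measured by SPA. EC50 is the concentration giving 50% of maximal PACAP27 activity, and R3 selectivity is EC50(R2)/EC50(R3).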

PACAP-R2 = molecular target: T2, PACAP-R2; experiment: Cyclic AMP SPA on CHO cells transfected with PACAP-R2; assay type: cell-based; conditions: cAMP SPA, concentration at which 50% of maximum PACAP27 activity is achieved, NA = no detectable activities, read-out: R2 EC50
In short: as §1

[3] = Intraperitoneal glucose tolerance test (IPGTT), plasma glucose in rats; assay type: in vivo, Wistar rats; conditions: 1 nmole/kg s.c., rats, FIG. 7
Procedure: Wistar rats are fasted overnight and then anesthetized with pentobarbital. The rats were eye-bled (zero time) and the peptide (in 1% human albumin) was injected into the tail vein. Five minutes later, 1 g/kg of glucose (in saline) was injected intraperitoneally, and the rats were eye-bled after 15, 30 and 60 minutes. Plasma glucose levels were determined using the Technicon Axon autoanalyzer, Bayer Diagnosics division of Bayer Corporation, Tarrytown N.Y., operated using Method No. SM4-2143F90“Glucose”.
Wistar rats were fasted overnight and then anesthetized with Pentobarbital. The rats were eye-bled (zero time) and the peptide (in 1% human albumin) was injected subcutaneously. Five minutes later, 1 g/kg of glucose (in saline) was injected intraperitoneally, and the rats were eye-bled after 30 minutes.
Plasma glucose: Data are expressed as % of vehicle of plasma glucose area under the curve after IPGTT (1 g/kg glucose) after treatment with 1 nmol/kg dose of the peptide. […] The present inventors have shown for the first time that this is because the effects of R2 and R3 on glucose tend to cancel each other out. […] Therefore, R3-selectivity appears to be a desirable attribute for medicaments which are to be employed in achieving blood glucose reduction, for treatment of type 2 diabetes.

PACAP-R3 [4] = molecular target: T3, PACAP-R3; experiment: cell-based or functional assay

Molecule | R3 EC50, nM (cAMP SPA) (PACAP-R3 [4]) [nM] | R3 Selectivity (PACAP-R3 [4]) [ratio] | also measured
HSDAVFTDNYTRLRKQVAAKKYLQSIKKKR [Peptide R3P77] | – | – | Plasma Insulin (% of Basal) ([1]; 1 nmole/kg peptide i.v.): 388%; EC50 (PACAP-R3 [2]): 0.4 nM; R3 Selectivity (PACAP-R3 [2]): 500; EC50 (PACAP-R2): 200 nM
HSDAVFTDNYTRLRKQMAAKKYLNSIKK [Peptide R3P51] | – | – | Plasma Insulin (% of Basal) ([1]; 0.1 nmol/kg peptide i.v.): 259%; EC50 (PACAP-R3 [2]): 0.26 nM; R3 Selectivity (PACAP-R3 [2]): 90; EC50 (PACAP-R2): 23 nM
HAEGTFTSDV SSYLEGQAAK EFIAWLVKGR-NH2 (HAEGTFTSDVSSYLEGQAAKEFIAWLVKGR-NH2) [GLP-1, incretin hormone released from the intestinal L-cell, a known insulin secretagogue, reference compound] | – | – | elevation of plasma glucose 30 minutes after IPGTT [3]: enhance glucose disposal
HSDAVFTDNYTRLRKQLAAKKYLNDIKK-NH2 [Peptide R3P13] | – | – | elevation of plasma glucose 30 minutes after IPGTT [3]: significantly reduced; EC50 (PACAP-R3 [2]): 5 nM; R3 Selectivity (PACAP-R3 [2]): 33; EC50 (PACAP-R2): 163 nM
CC[C@H](C)[C@H](NC(=O)[C@H](CO)NC(=O)[C@H](CCC(N)=O)NC(=O)[C@H](CC(C)C)NC(=O)[C@H](Cc1ccc(O)cc1)NC(=O)[C@H](CCCCN)NC(=O)[C@H](CCCCN)NC(=O)[C@@H](NC(=O)[C@H](C)NC(=O)[C@@H](NC(=O)[C@H](CCC(N)=O)NC(=O)[C@H](CCCCN)NC(=O)[C@H](CCCNC(=N)N)NC(=O)[C@H](CC(C)C)NC(=O)[C@H](CCCNC(=N)N)NC(=O)[C@@H](NC(=O)[C@H](Cc1ccc(O)cc1)NC(=O)[C@H](CC(N)=O)NC(=O)[C@H](CC(=O)O)NC(=O)[C@@H](NC(=O)[C@H](Cc1ccccc1)NC(=O)[C@@H](NC(=O)[C@H](C)NC(=O)[C@H](CC(=O)O)NC(=O)[C@H](CO)NC(=O)[C@@H](N)Cc1c[nH]cn1)C(C)C)[C@@H](C)O)[C@@H](C)O)C(C)C)C(C)C)C(=O)N[C@@H](CCCCN)C(=O)N[C@@H](CCCCN)C(=O)N[C@@H](CCCCN)C(=O)N[C@@H](CCCNC(=N)N)C(=O)O [Peptide R3P80] | – | – | Plasma Insulin (% of Basal) ([1]; 1 nmole/kg peptide i.v.): 360%; EC50 (PACAP-R3 [2]): 0.44 nM
B1 | 0.04 | 3 | –
B2 | 0.3 | 1 | –
B3 | 1.1 | 1.4 | –
B4 | 0.2 | 90 | –
B5 | 2.2 | 180 | –
B6 | 2 | 150 | –
B7 | 1.6 | 70 | –
B8 | 0.75 | 110 | –
B9 | 1.5 | 150 | –
